Data from patent US20250250357A1 (NANJING ZAIMING PHARMACEUTICAL, published 2025).

Experiments:
[1] = molecular target: T1, human MSLN-R2-his protein (human, UniProt Q13421 391-486); assay: ELISA on coated antigen, antibody 2 nM
T1 construct: it is put last here; also called human MSLN-R2 protein; hMSLN-R2-his; not shown: His tag

[2] = molecular target: T2, human MSLN-R3-his protein (human, UniProt Q13421 487-598); assay: ELISA on coated antigen, antibody 2 nM
T2 construct: it is put last here; also called human MSLN-R3 protein; hMSLN-R3-his; not shown: His tag

[3] = molecular target: T1, human MSLN-R2-his protein; assay: ELISA on coated antigen, antibody 20 nM
Procedure: (§1) The plate was sealed with a plastic film and incubated at 4° C. overnight. The next day, the plate was washed twice with PBST, and a blocking buffer [PBS+2% (w/w) BSA] was added for blocking at room temperature for 2 h. The blocking buffer was discarded, and a chimeric antibody or negative control antibody serially diluted from 100 nM was added at 50 μL/well. After incubation at 37° C. for 2 h, the plate was washed 3 times with PBST. […] After incubation at 37° C. for 2 h, the plate was washed 5 times with PBST. A TMB substrate was added at 50 μL/well for incubation at room temperature for 5-10 min, and then a stop solution (1.0 N HCl) was added at 50 μL/well.

[4] = molecular target: T2, human MSLN-R3-his protein; assay: ELISA on coated antigen, antibody 20 nM
Procedure: as §1

[5] = molecular target: T1, human MSLN-R2-his protein; assay: ELISA on coated antigen, antibody 0.2 nM
Procedure: as §1

[6] = molecular target: T1, human MSLN-R2-his protein; assay: ELISA on coated antigen, antibody 200 nM
Procedure: as §1

[7] = molecular target: T2, human MSLN-R3-his protein; assay: ELISA on coated antigen, antibody 0.2 nM
Procedure: as §1

[8] = molecular target: T2, human MSLN-R3-his protein; assay: ELISA on coated antigen, antibody 200 nM
[9] = molecular target: T1, human MSLN-R2-his protein; assay: ELISA on coated antigen, antibody 0.02 nM
Procedure: as §1

[10] = molecular target: T2, human MSLN-R3-his protein; assay: ELISA on coated antigen, antibody 0.02 nM
Procedure: as §1

[11] = molecular target: T1, human MSLN-R2-his protein; assay: ELISA on coated antigen, antibody 0.002 nM
Procedure: as §1

[12] = molecular target: T2, human MSLN-R3-his protein; assay: ELISA on coated antigen, antibody 0.002 nM
[13] = molecular target: T1, human MSLN-R2-his protein; assay: ELISA on coated antigen, antibody 0.0002 nM
Procedure: as §1

[14] = molecular target: T2, human MSLN-R3-his protein; assay: ELISA on coated antigen, antibody 0.0002 nM
Procedure: as §1

[15] = molecular target: T1, human MSLN-R2-his protein; assay: ELISA on coated antigen, no antibody (blank, column 'none')
Procedure: as §1

[16] = molecular target: T2, human MSLN-R3-his protein; assay: as above

T1 sequence (Q13421 other isoform, or with tags, fused parts or gaps): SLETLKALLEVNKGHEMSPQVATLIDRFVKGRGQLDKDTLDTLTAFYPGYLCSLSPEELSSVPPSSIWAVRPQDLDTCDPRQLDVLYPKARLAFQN
T2 sequence (Q13421 495-606): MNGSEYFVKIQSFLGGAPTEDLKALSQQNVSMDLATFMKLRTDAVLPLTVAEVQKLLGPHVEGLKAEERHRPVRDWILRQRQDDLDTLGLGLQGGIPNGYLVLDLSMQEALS

Row | Binder | OD450 [1] | OD450 [2] | OD450 [3] | OD450 [4] | OD450 [5] | OD450 [6] | OD450 [7] | OD450 [8] | OD450 [9] | OD450 [10] | OD450 [11] | OD450 [12] | OD450 [13] | OD450 [14] | OD450 [15] | OD450 [16]
1 | S009-F7.18.10 (antibody, human IgG1, kappa, V domains shown, Human-murine chimeric antibody, human IgG1 heavy and kappa light constant regions) VH: QVQLQQSGAELVRPGTSVKVSCKASGYAFTNYLIEWVKQRPGQGLEWIGVINPGSGGTKYNEKFKGKATLTADKSSSTAYMQLSSLTSEDSAVYFCASDYDYDPFAYWGQGTLVTVSA VL: DIVMTQSHKFMSTSVGDRVSITCKASQDVSTAVAWYQRKPGQSPKLLIYWASTRHTGVPDRFTGSGSGTDYTLTISYMQAEDLALYYCQQHYSTPYTFGGGTKLEIKR | 0.09 OD | 0.07 OD | 0.09 OD | 0.14 OD | 0.06 OD | 0.14 OD | 0.06 OD | 0.29 OD | 0.05 OD | 0.05 OD | 0.05 OD | 0.05 OD | 0.05 OD | 0.05 OD | 0.06 OD | 0.07 OD
2 | S009-F7.23.19 (antibody, human IgG1, kappa, V domains shown, Human-murine chimeric antibody, human IgG1 heavy and kappa light constant regions) VH: EVKLVESGGGLVQPGGSLSLSCAASGFTFTDYYMSWVRQPPGKALEWLGFIRSKANAYTTEYSASVKGRFTISRDNSQSILYLQMNDLRAEDSATYYCARYYYYGSGYVWYFDVWGTGTTVTVSS VL: DIVMTQSQKFMSTSVGDRVSVTCKASQSVGTNVAWYQQKPGQFPKALIYSASYRYSGVPDRFTGSGSGTDFTLTIINVQSEDLAEYFCQQYNSYPLTFGAGTKLELKR | 0.05 OD | 2.52 OD | 0.05 OD | 2.63 OD | 0.05 OD | 0.09 OD | 1.9 OD | 2.77 OD | 0.05 OD | 0.88 OD | 0.05 OD | 0.25 OD | 0.14 OD | 0.08 OD | 0.06 OD | 0.09 OD
3 | S009-F7.33.24 (antibody, human IgG1, kappa, V domains shown, Human-murine chimeric antibody, human IgG1 heavy and kappa light constant regions) VH: QVQLQQPGTELVKPGASVKLSCKASGYTFTSYWMHWVKQRPGQGLEWIGNVNPSNGGSNYNEKFKNKATLTVDKSSSTADMQLNSLTSEDSAVYYCAPHYIGSRPGFAYWGQGTLVTVSG VL: DIVMTQSQKFMSTSVGDRVSVTCKASQNVGTNIAWYQQKPGQSPKALIYSASYRYSGVPDRFTGSGSGTDFTLTITNVQSEDLAEYFCQQYNSYPLTFGGGTKVEIKR | 0.06 OD | 2.85 OD | 0.04 OD | 2.67 OD | 0.06 OD | 0.08 OD | 2.7 OD | 2.84 OD | 0.06 OD | 2.13 OD | 0.06 OD | 1.04 OD | 0.06 OD | 0.23 OD | 0.07 OD | 0.08 OD
4 | S009-F7.30.5 (antibody, human IgG1, kappa, V domains shown, Human-murine chimeric antibody, human IgG1 heavy and kappa light constant regions) VH: QVQLQQPKTELVKPGASVKLSCKASGYIFTTYWMHWVKQRPGQGLEWIGNVNPSNGGTMYNEKFERRATLTVDKSSSTADMQLSSLTSEDSAVYYCVPHYIGSRPGFAYWGQGTLVTVSG VL: DIVMTQSQKFMSTSVGDRVSVTCKASQNVGTNVAWYQHKPGQSPKALLYSASYRYSGVPDRFTGSGSGTDFTLTITNVQSEDLAEYFCQQYNSYPLTFGGGTKLEIKR | 0.06 OD | 2.75 OD | 0.15 OD | 2.84 OD | 0.06 OD | 0.5 OD | 2.66 OD | 2.71 OD | 0.05 OD | 1.7 OD | 0.05 OD | 0.74 OD | 0.05 OD | 0.25 OD | 0.06 OD | 0.09 OD
5 | S009-F7.25.19 (antibody, human IgG1, kappa, V domains shown, Human-murine chimeric antibody, human IgG1 heavy and kappa light constant regions) VH: QVQLQQPGTELVKPGASVKLSCKASGYTFTSYWMHWVKQRPGQGLEWIGNIIPSNGGTKYNEKFKSKATLTVDKSSSTAYMQLSSLTSEDSAVYYCSPHYYGGSPGFAYWGQGTLITVSA VL: DIVMTQSQKFMSTSVGDRVSVICKASQNVGTNVAWYQQKPGQSPKALIYSASYRYSGVPDRFTGSGSGTDFTLTISNVQSEDLAEYFCQQYNSYPLTFGGGTKLEIKR | 0.06 OD | 2.76 OD | 0.09 OD | 2.71 OD | 0.05 OD | 0.31 OD | 2.6 OD | 2.83 OD | 0.05 OD | 1.81 OD | 0.05 OD | 0.9 OD | 0.05 OD | 0.3 OD | 0.06 OD | 0.07 OD

Results, then the binder that gave them:

Row | OD450 [1] | OD450 [2] | OD450 [3] | OD450 [4] | OD450 [5] | OD450 [6] | OD450 [7] | OD450 [8] | OD450 [9] | OD450 [10] | OD450 [11] | OD450 [12] | OD450 [13] | OD450 [14] | OD450 [15] | OD450 [16] | Binder
6 | 0.05 OD | 2.79 OD | 0.08 OD | 2.73 OD | 0.05 OD | 0.18 OD | 2.45 OD | 2.74 OD | 0.05 OD | 1.63 OD | 0.05 OD | 0.6 OD | 0.05 OD | 0.16 OD | 0.06 OD | 0.07 OD | S009-F7.26.15 (antibody, human IgG1, kappa, V domains shown, Human-murine chimeric antibody, human IgG1 heavy and kappa light constant regions) VH: DVQLQESGPGLVKPSQTVFLTCTVTGISITTGNYRWSWIRQFPGNKLEWIGYIYYTGFITYNPSLTSRTTITRDTPKNQFFLEMKSLTAEDTATYYCARDDYDYDVFAYWGQGTLVTVSA VL: DIQMTQSPASLSASVGETVTITCRASGNIHNYLAWYHQKQGKSPQFLVYKAKTLADGVPSRFSGSGSGTQYSLKINRLQPEDFGSYYCQHFLSIPLTFGAGTKLELKR
7 | 0.05 OD | 2.48 OD | 0.06 OD | 2.67 OD | 0.05 OD | 0.08 OD | 1.67 OD | 2.96 OD | 0.05 OD | 0.36 OD | 0.05 OD | 0.15 OD | 0.05 OD | 0.06 OD | 0.06 OD | 0.06 OD | S009-F7.12.13 (antibody, human IgG1, kappa, V domains shown, Human-murine chimeric antibody, human IgG1 heavy and kappa light constant regions) VH: EVQLQQSGPELVKPGASVKIPCKASGYTFTDYNMDWVKQSHGKGLEWIGDINPNTDDTIYNQKFNGKATLTVDKSSSTAYMELRSLTSEDTAVYYCSRRLIGTGYFDVWGTGTTVTVSS VL: QIVLTQSPAIMSASPGEKVTLTCSASSSVISTYLCWYRQKPGSSPELWIYSTSNLASGVPARFSGSGSGTSYSLTISSMEAEDAASYFCHQWSNYPYTFGGGTKLGMKR
8 | 0.05 OD | 2.05 OD | 0.07 OD | 2.43 OD | 0.05 OD | 0.09 OD | 0.94 OD | 2.69 OD | 0.05 OD | 0.26 OD | 0.05 OD | 0.08 OD | 0.05 OD | 0.05 OD | 0.06 OD | 0.06 OD | S009-F7.48.1 (antibody, human IgG1, kappa, V domains shown, Human-murine chimeric antibody, human IgG1 heavy and kappa light constant regions) VH: QVQLQQPGTELVKPGASVKLSCKASGYTFTSYWMHWVKQRPGQGLEWIGNINPSNGGTNNNENFKSKATLTVDTSSSTAYMQLSSLTSEDSAVYYCVRNGYHGYWYFDVWGTGTTVTVSS VL: DIVMTQSQKFMSTSVGDRVSVTCKASQNVGTNVAWYQQQPGQSPKALIYSASYRYSGVPDRFTGSVSGTDFTLTISNVQSEDLAEYFCQQYNSYPLTFGGGTKLEIKR
9 | 0.05 OD | 2.46 OD | 0.06 OD | 2.48 OD | 0.05 OD | 0.1 OD | 2.2 OD | 2.91 OD | 0.05 OD | 0.9 OD | 0.05 OD | 0.27 OD | 0.05 OD | 0.1 OD | 0.06 OD | 0.06 OD | S009-F7.44.20 (antibody, human IgG1, kappa, V domains shown, Human-murine chimeric antibody, human IgG1 heavy and kappa light constant regions) VH: EVQLQQSGPELVKPGASVKIPCKASGYTFTDYNMDWVKQSHGKSLEWIGDINPSTGGTIYNQKFNGKATLTEDKSASTVYMEFRSLTSDDTAVYYCARRRIGTGYFDVWGTGTTVTVSS VL: QIVLTQSPALMSASPGEKVTLTCSASSSVISSYLSWYQQKPGSSPKLLIYRTSNLASGVPARFSGSGSGTSYSLTISSMEAEDAASYFCHQWSSFPYTFGGGTKLEIKR
10 | 0.11 OD | 2.43 OD | 0.12 OD | 2.46 OD | 0.07 OD | 0.15 OD | 1.92 OD | 3 OD | 0.07 OD | 0.69 OD | 0.07 OD | 0.12 OD | 0.07 OD | 0.07 OD | 0.08 OD | 0.06 OD | S009-F7.41.18 (antibody, human IgG1, kappa, V domains shown, Human-murine chimeric antibody, human IgG1 heavy and kappa light constant regions) VH: QVQLQQPGTELVKPGASVKLSCKASDYTFTSYWMHWVKQRPGQGLEWIGSINPSNGDTYYNEKFKNKATLTVDKSSSTAYMQLSSLTSDDSAVYYCARGWYFDVWGTGTTVTVSS VL: not shown
